Consider 2 molecules from patent US20200347144A1 (SHANGHAI HYAMAB BIOTECH, published 2020).

A word on the EC50 (read off the curve): it is the concentration that produces a half-maximal response.

Experiment [1] addresses T1, monkey 4-1BB on CHOK1 cells (monkey).
T1 construct: whole, on cells; also called CHOK1-c4-1BB
As to the kind of experiment: FACS, CHOK1-c4-1BB cells; Ab 0.0032 ug/ml. From the text: (§1) The pIRES plasmid carrying the full-length gene of monkey-derived […] (the preparation method is the same as the preparation method of the pCpC vector carrying the human-derived IgG Fc fragment (hFc) in “Preparation of immunogen A” of the step (1) in Example 1, in which the database accession number of the amino acid sequence of the extracellular region of monkey 4-1BB protein (Phe19-Thr239) is G7PSE7) was transfected into CHOK1 cell line to obtain CHOK1 stable transfected cell line containing monkey 4-1BB (herein referred to as CHOK1-c4-1BB stable cell line). The CHOK1-h4-1BB stable cell line and the CHOK1-c4-1BB stable cell line were expanded and cultivated to 90% confluence in T-75 cell culture flasks. The medium was exhausted, and washed twice with HBSS buffer (Hanks Balanced Salt Solution, purchased from Invitrogen), and then the cells were treated and collected with enzyme-free cell dissociation solution (Versene solution, purchased from Life Technology). The cells were washed twice with HBSS buffer, and after cell counting, the cells were diluted with HBSS buffer to 2×10⁶ cells per ml, and 1% goat serum blocking solution was added, the percentage being the mass percentage. It was incubated on ice for 30 minutes, and then washed twice with HBSS buffer by centrifugation. The collected cells were suspended in FACS buffer (HBSS containing 1% BSA, the percentage was the mass percentage) to 2×10⁶ cells/mL, and 100 μl per well was added to a 96-well FACS reaction plate. The purified 4-1BB antibody test sample obtained in Example 2 was added, 100 microliters per well and incubated on ice for 2 hours. […] It was washed three times with FACS buffer by centrifugation, and 100 μl of fixative [4% (v/v) paraformaldehyde] per well was added to suspend cells, and washed twice with FACS buffer after 10 minutes by centrifugation. The cells were suspended with 100 microliters of FACS buffer, and the results were detected and analyzed with FACS (FACS Calibur, purchased from BD).
In general terms: A flow cytometer gives signals particle by particle.

Experiment [2] addresses T1, monkey 4-1BB on CHOK1 cells. As to the kind of experiment: FACS, CHOK1-c4-1BB cells; Ab 2 ug/ml.
Description: as §1

The target in experiment [3] is T2, human 4-1BB, full length, on transfected cells (human, UniProt Q07011 24-255).
T2 construct: whole, on cells; also called CHOK1-h4-1BB
As to the kind of experiment: FACS, CHOK1-h4-1BB cells; Ab 2 ug/ml.
Description: as §1

Experiment [4] addresses T2, human 4-1BB, full length, on …. As to the kind of experiment: FACS, CHOK1-h4-1BB cells; Ab 0.0032 ug/ml.
Description: as §1

Experiment [5] deals with T1, monkey 4-1BB on CHOK1 cells. As to the kind of experiment: FACS, CHOK1-c4-1BB cells; Ab 0.4 ug/ml.
Description: as §1

The target is the same in experiment [6]. As to the kind of experiment: FACS, CHOK1-c4-1BB cells; Ab 10 ug/ml.
Description: as §1

For experiment [7] the target is unchanged. As to the kind of experiment: FACS, CHOK1-c4-1BB cells; Ab 0.00013 ug/ml.
Description: as §1

Experiment [8] has as its target T2, human 4-1BB, full length, on …. As to the kind of experiment: FACS, CHOK1-h4-1BB cells; Ab 0.00013 ug/ml.
Description: as §1

The target in experiment [9] is T1, monkey 4-1BB on CHOK1 cells. As to the kind of experiment: FACS, CHOK1-c4-1BB cells; Ab 0.00064 ug/ml.
Description: as §1

Experiment [10] has as its target T2, human 4-1BB, full length, on …. As to the kind of experiment: FACS, CHOK1-h4-1BB cells; Ab 0.08 ug/ml.
Description: as §1

For experiment [11] the target is unchanged. As to the kind of experiment: FACS, CHOK1-h4-1BB cells; Ab 10 ug/ml.
Description: as §1

The target in experiment [12] is T1, monkey 4-1BB on CHOK1 cells. As to the kind of experiment: FACS, CHOK1-c4-1BB cells; Ab 0.016 ug/ml.
Description: as §1

Experiment [13] has as its target T2, human 4-1BB, full length, on …. As to the kind of experiment: FACS, CHOK1-h4-1BB cells; Ab 0.016 ug/ml.
Description: as §1

Experiment [14] has the same target. As to the kind of experiment: FACS, CHOK1-h4-1BB cells; Ab 0.00064 ug/ml.
Description: as §1

The target is the same in experiment [15]. As to the kind of experiment: FACS, CHOK1-h4-1BB cells; Ab 0.4 ug/ml.
Description: as §1

Experiment [16] deals with T1, monkey 4-1BB on CHOK1 cells. As to the kind of experiment: FACS, CHOK1-c4-1BB cells; Ab 0.08 ug/ml.
Description: as §1

The target of experiment [17] is T3, hFc-tagged human 4-1BB extracellular domain protein (4-1BB-hFc) (human, UniProt Q07011 24-186, limits assumed).
T3 construct: also called immunogen A; 4-1BB^ECD-hFc; not shown: human IgG Fc fragment (hFc) of the pCpC vector
As to the kind of experiment: ELISA: 4-1BB-hFc coated at 0.5 µg/mL, his-muCD8a-4-1BBL titrated, detection by biotin anti-mouse CD8a and streptavidin-HRP, OD450. On the technique in general: In an ELISA, binding on a coated surface is turned into a signal by an enzyme label.

T2 sequence (Q07011 24-255): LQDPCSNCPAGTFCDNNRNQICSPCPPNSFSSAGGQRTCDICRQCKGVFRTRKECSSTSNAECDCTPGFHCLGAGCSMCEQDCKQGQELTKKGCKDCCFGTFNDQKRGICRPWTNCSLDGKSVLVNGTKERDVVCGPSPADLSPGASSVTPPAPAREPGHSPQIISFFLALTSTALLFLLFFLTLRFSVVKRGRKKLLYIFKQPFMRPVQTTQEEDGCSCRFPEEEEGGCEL

B1: 100F3C4 (antibody, V domains shown)
VH: QVQLQESGPGLVKPSGTLSLTCAVSGGSISSSNWWSWVRQPPGKGLEWIGEIYHSGSTNYNPSLKSRVTMSVDKSKNQFSLELRSVTAADTAVYYCARDAVDAYYYYYGMDVWGQGTTVTVSS
VL: DIQLTQSPSFLSASVGDRVTITCRASQGISSYLAWYQQKPGKAPKLLIYAASTLQSGVPSRFSGSGSGTEFTLTISSLQPEDFATYYCQHLNSYPFTFGPGTKVDLK
Turning to B1, the average fluorescence intensity in experiment [1] was 5.4 MFI; in [2] it was 479 MFI; in experiment [3], 390 MFI; in experiment [4], 4.6 MFI; in experiment [5], 204 MFI; in experiment [6], 552 MFI. In addition, the average fluorescence intensity was found to be 2.2 MFI in experiment [7]; 2 MFI in experiment [8]; 2.9 MFI in experiment [9]; 43.1 MFI in experiment [10]; 458 MFI in experiment [11]; 15.2 MFI in [12]. Moreover, the average fluorescence intensity in [13] was found to be 12.7 MFI; in experiment [14], 2.5 MFI; in experiment [15], 154 MFI; in [16], 51.1 MFI.

B2: his-muCD8a-4-1BBL^ECD fusion protein (ligand, UniProt P01731 28-194, looked up)
chain: KPQAPELRIFPKKMDAELGQKVDLVCEVLGSVSQGCSWLFQNSSSKLPQPTFVVYMASSHNKITWDEKLNSSKLFSAMRDTNNKYVLTLNKFSKENEGYYFCSVISNSVMYFSSVVPVLQKVNSTTTKPVLRTPSPVHPTGTSQPQRPEDCRPRGSVKGTGLDFACDREGPELSPDDPAGLLDLRQGMFAQLVAQNVLLIDGPLSWYSDPGLAGVSLTGGLSYKEDTKELVVAKAGVYYVFFQLELRRVVAGEGSGSVSLALHLQPLRSAAGAAALALTVDLPPASSEARNSAFGFQGRLLHLSAGQRLGVHLHTEARARHAWQLTQGATVLGLFRVTPEIPAGLPSPRSE
notes: also called 4-1BB ligand protein; not shown: his-tag on the N side
Turning to B2, the “EC50 (read off the curve)” value in experiment [17] was roughly 0.03 µg/mL.
